In the supplement of paper PMC12042874:
± gives the uncertainty stated by the source.

Assay: amyloid nucleation score (Sup35N fusion, yeast selection) (log enrichment); library NNK1; higher = more nucleation; inactive = no reads after selection
Procedure, shortened: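 The nucleation score is the DiMSum log enrichment of output over input reads, centred on the mode score of non-aggregating sequences. Only sequences with 100 or more input reads were scored, using Illumina sequencing of input and output plasmid inserts. Psi-negative yeast expressing Sup35N fused to peptides of 20 random codons were induced 24 hours with 100 μM copper sulfate and grown 7 days at 30°C on medium lacking adenine and uracil.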

| Substance | amyloid nucleation score |
| --- | --- |
| HSGSDSAITVVSLGIRE | -0.19 ± 0.91 |
| HSGTVVYNMEMKKINSCYLL | 2.58 ± 0.1 |
| HSHRYNILQASWKA | 0.17 ± 0.38 |
| HSKRYCGACDLGYLCYRCNI | -0.333 ± 0.24 |
| HSLEDMKHRLGLGGWSSCKV | 0.183 ± 0.57 |
| HSNIRMCKAECSRGELH | 0.812 ± 0.61 |
| HSQLLGMPFTSSVDS | 0.635 ± 0.97 |
| HSVNACLTGRKGAPLRDKPG | 0.166 ± 0.78 |
| HTHESNRPHYYCGADCLPKD | 2.71 ± 0.14 |
| HTQDYEEFIFCLM | inactive |
| HTTSICVRELPDQEVWTAVN | 0.109 ± 0.54 |
| HTYSWKISDSSYPTFPELFW | 0.121 ± 0.39 |
| HVFPHLWKYYCMAVALVFLR | 1.38 ± 0.61 |
| HVFSLKRPDGCRRR | 0.711 ± 0.38 |
| HVHTDSIDRVWRVLFTIKSK | 0.776 ± 0.61 |
| HVLWGIVLVVIFFW | -0.151 ± 0.29 |
| HVQEDLNAVGHPLEFEMTVR | -0.979 ± 1.9 |
| HVSVRSLRAVGVLRRRCGNG | inactive |
| HVTVNGWGAVSFLKNAKVVR | inactive |
| HVVFVMDVRYPKIAVVYLLA | 1.1 ± 0.66 |
| HWSSFPNVLYIM | -0.106 ± 0.44 |
| HWSSSVSVNGVRYTFMSTSR | -2.08 ± 2.7 |
| HWTTHESRKMVGQRFQPVGG | 0.078 ± 0.34 |
| HWWYFCINP | inactive |
| HYLVLYVIMYMFVQMSLPC | 2.14 ± 0.49 |

| Substance | amyloid nucleation score |
| --- | --- |
| HYRYFCGLTYVDSAARLQGG | -1.5 ± 1.8 |
| HYSGIVWCSVREL | 1.72 ± 0.52 |
| HYVVG | -0.784 ± 0.74 |
| IAREVSSVTVSPQEGTRWWG | 0.276 ± 0.3 |
| ICFRSFRHGNYGLMRG | 1.35 ± 0.9 |
| ICHFVLYVQRPNSGWHYKSL | 1.91 ± 0.53 |
| ICIASFCKKNVTCGLIWLIV | 1.51 ± 0.7 |
| ICISSPVMMKAIPLPFEFSR | -0.167 ± 0.43 |
| ICLIAWGQ | 1.66 ± 0.41 |
| ICLLLCLVWDGCIATISNGL | -1.39 ± 2.1 |
| ICQRSRAGSGSEVLT | -0.205 ± 0.49 |
| ICSNVLFVLILEKEASFGCY | 4.21 ± 0.051 |
| ICSWPNRRVAVPH | -0.482 ± 1.2 |
| ICTFVMKLTAFVIIVLVFFH | -0.125 ± 0.26 |
| IDKNVIIIKVLCMLIVFPTG | -0.771 ± 0.82 |
| IDTNCRNCGYREFASKCELR | 0.456 ± 0.26 |
| IDVRI | -0.152 ± 0.43 |
| IEAYVINGKLDWALWFRGDE | -0.407 ± 0.85 |
| IEDTGIYRSVTFTVAMTYTV | -0.373 ± 0.38 |
| IEESSWLLDFRSGSALSEVS | -0.542 ± 0.86 |
| IEFLAILLVAAMVQ | -0.345 ± 1.2 |
| IELVNYFHYFRWVGLLDRRC | -0.077 ± 0.38 |
| IESWCLMSVNSDGARWSSRF | -0.872 ± 0.83 |
| IFEIAESDLVYDHFSHYFKR | -0.033 ± 0.67 |
| IFFKLVLVWTFLLTYQAYWV | 0.174 ± 0.85 |

| Substance | amyloid nucleation score |
| --- | --- |
| IFGGLH | 0.631 ± 0.5 |
| IFGITNSMLVFMGYCLIHCL | -0.895 ± 1 |
| IFITCIARTLYHAGNLQRNL | 2 ± 0.11 |
| IFLGIFSGILYRLSHRLCS | inactive |
| IFRSFLDG | -0.437 ± 0.3 |
| IFSGWCVRVFCSFLKHNCLN | -0.408 ± 0.47 |
| IFSHIPCLITFSNDQ | 2.13 ± 0.43 |
| IFVSHYNVR | 0.734 ± 0.25 |
| IFVSSVRGAPYIYKCTKSRM | -0.504 ± 0.52 |
| IGAGPRL | -0.623 ± 0.27 |
| IGCLKFSFFHNLGFGSIDYR | -0.742 ± 0.53 |
| IGPGTWGLSLYRDRILITTM | -0.037 ± 0.89 |
| IGSMRMVSGLRFMRFVDHFS | -0.316 ± 0.42 |
| IGSVCLQ | inactive |
| IGVRRFFLWS | -0.753 ± 0.48 |
| IHLCYRDYRMHVARLSAETG | 0.02 ± 0.53 |
| IHMLIVLSF | -0.103 ± 1.4 |
| IHRFKFGG | 1.98 ± 0.2 |
| IHVPNYVDRELELRASNSSR | -0.298 ± 0.32 |
| IHWANPLTVSAFKVWVEDMV | 0.256 ± 0.29 |
| IICSSM | inactive |
| IIFHICRTGEDLTKSGCLSW | -0.494 ± 1.1 |
| IIFNYPNPIYLNAKEVMLYI | 6.52 ± 0.067 |
| IIGRLNLKMISGLI | 2.15 ± 0.58 |
| IIHFKSGIWNATDGCLIMCV | 0.793 ± 0.65 |

| Substance | amyloid nucleation score |
| --- | --- |
| IILFSSVGCSMCMTSGLEGF | 6.964 ± 0.066 |
| IILLNNYTDMHIPEGIGVTM | 0.466 ± 1.4 |
| IIMRTMHHAKRLSGLKP | 0.996 ± 0.44 |
| IIPPV | inactive |
| IIQCNVTYAS | 3.63 ± 0.12 |
| IIRGRNVNSVRSNYYMGRFY | 2.72 ± 0.095 |
| IISVTVFFKCARLEILNR | -0.64 ± 0.57 |
| IKALMIC | inactive |
| IKGPLLFIFSESVLAFDETS | 3.6 ± 0.073 |
| IKGQGVKVSVVLTAGTCRLW | 1.17 ± 0.19 |
| IKIIAFFWLCSYHGWISWKS | -1.5 ± 1.1 |
| IKIRAFDTSSCSQFRVRPRV | 4.63 ± 0.095 |
| IKISYEIQAMAVLGM | inactive |
| IKLGVFRIKSSFN | 0.708 ± 0.34 |
| IKLHSEGRIYHINFACRSVC | 0.199 ± 0.24 |
| IKLTPLMLRTTELV | -1.32 ± 0.5 |
| IKNKGRYVFETPGL | 0.13 ± 0.87 |
| IKPANYA | -0.679 ± 0.53 |
| IKSGPPGRRQLFN | -0.741 ± 0.81 |
| ILFFRRCISVGLL | 3.33 ± 0.12 |
| ILGFSRWNLNCISSRGRKIR | -0.297 ± 0.39 |
| ILGLSRGQ | 0.015 ± 0.37 |
| ILGMFSTICDGWADVMH | 0.525 ± 0.36 |
| ILGWHGIRFVFRTALFRR | -0.286 ± 0.41 |
| ILHQAILRCVSRYGLS | -0.012 ± 0.76 |

| Substance | amyloid nucleation score |
| --- | --- |
| ILIFVNSVYRNVSSR | 5.27 ± 0.056 |
| ILILNGLGGHVFARWYVACT | 0.002 ± 0.75 |
| ILILRGNCR | -0.165 ± 0.73 |
| ILISVSLNMWY | 2.43 ± 0.13 |
| ILITSLWFSGVADVMANRVW | 0.314 ± 0.34 |
| ILMMPLIESCMEVLGHPS | 0.873 ± 0.51 |
| ILMYMWDKLNLYNIWFLRQV | 0.263 ± 0.5 |
| ILPKWAK | 0.7 ± 0.97 |
| ILPRNFVSTNVANRFIEGSS | 0.932 ± 0.66 |
| ILQSFSTVEHFEDLL | 0.58 ± 1.2 |
| ILRNGRTYGAEVLQQLWNVL | -0.418 ± 0.73 |
| ILSAMVRE | -0.081 ± 0.23 |
| ILSICLSLVFRPSVMIEYLR | 0.191 ± 0.26 |
| ILSIFLYWAILLRSCQYLYW | -0.949 ± 0.4 |
| ILSKVCGFSVARIWCSCISI | 6.65 ± 0.088 |
| ILTMVEILKTIRGSA | -0.316 ± 0.47 |
| ILVPYLIAFFMEYRSRLCRF | 0.254 ± 0.27 |
| ILYCLNLVIHLCQRYSLILR | 1.97 ± 0.56 |
| IMARCIVFKPG | 0.136 ± 0.75 |
| IMCPMWWLVLYNSSVQRYAE | 6.11 ± 0.07 |
| IMFLRLFKGLCMKYSVRRDC | -0.512 ± 0.4 |
| IMKYPETGLAGRLLTGYTLS | 0.633 ± 0.61 |
| IMLLLREKLASIRMMQECQL | inactive |
| IMLTGLRLHVVDGEKLPMTS | 1.01 ± 0.71 |
| IMLVYMKTLGTM | 3.7 ± 0.071 |

| Substance | amyloid nucleation score |
| --- | --- |
| IMSKRTWWLRPRGPTACFQW | 0.208 ± 0.44 |
| IMSSL | -0.507 ± 0.73 |
| IMTESCCG | 0.743 ± 0.54 |
| IMTSWFLPQSCQNDWDKLY | -0.012 ± 0.2 |
| IMWSKENWDGG | -0.649 ± 0.44 |
| IMYCLFGHLFLLRIGGFIMG | 0.101 ± 0.68 |
| INFRHA | 2.57 ± 0.33 |
| INGMEYLEQKIEVL | 0.091 ± 0.42 |
| INGRTGILRRVGN | -1.28 ± 0.75 |
| INHVMHGMEVRRGVNGRWMY | 0.312 ± 1.1 |
| ININRNK | inactive |
| INLGFLWTCARDAVFLYDLS | 2.31 ± 0.17 |
| INLGVMWGVPTELLVCNF | inactive |
| INLYVNISRFIPCV | 0.027 ± 0.53 |
| INMRKLPSRVSSFKVKCGHR | -0.42 ± 1.7 |
| INQKSMMSSSDWRRWYFSGR | inactive |
| INYFRWGDIFVYSNSKSSRL | 0.511 ± 0.17 |
| IPARTESDTRYMSMCGSNNQ | -0.317 ± 0.55 |
| IPCDFDRISSSVFAKCNYSI | -0.455 ± 0.24 |
| IPDVEGQGG | 0.469 ± 0.72 |
| IPRYCRRNMADSAIV | 0.923 ± 0.62 |
| IPSGTVF | 0.34 ± 0.9 |
| IQSPC | -0.171 ± 0.23 |
| IQSSPIR | 0.464 ± 0.88 |
| IRDTLNVCNKEEQKSRGS | -0.358 ± 0.37 |

| Substance | amyloid nucleation score |
| --- | --- |
| IRGFSSSISLWWVDGTVANV | -0.422 ± 0.49 |
| IRSAN | 0.918 ± 1.1 |
| IRSQKCCFLHRWFLACFRII | -0.624 ± 1.1 |
| IRVSFCWSNLHNNYNSGRAT | 5.02 ± 0.085 |
| IRYCFCKIK | 0.312 ± 1.1 |
| IRYLWHVLMVRFEESRWSLY | -0.061 ± 0.36 |
| IRYYVVSSVVDSNS | -0.142 ± 0.31 |
| ISCCVKLRFGLCKSWNFMNQ | -1.19 ± 1.4 |
| ISCSVKILRCLTCMLFSSVV | -0.8 ± 1.3 |
| ISCTTFACTTRLKIRAAS | 0.434 ± 0.56 |
| ISECDICERR | -0.236 ± 0.68 |
| ISEGVIRDMSNRVRGSMQEI | -0.175 ± 1.2 |
| ISGFMLQVLTRRYSWMSA | -0.498 ± 0.88 |
| ISGYQS | 0.088 ± 0.64 |
| ISIIVVKFDMLLSNHHNSDA | 0.486 ± 0.58 |
| ISKNLNRMHILVLYMVGMRF | 0.259 ± 0.88 |
| ISLPLTPN | -0.492 ± 0.36 |
| ISLRYFPNYISFHKLGFRSA | 0.523 ± 0.39 |
| ISNCYQVKALFVSHFLIRDR | 4.29 ± 0.047 |
| ISPYPPRHLLQWVCKGE | 0.034 ± 0.68 |
| ISQKNDAMNYYIGMSQM | 1.52 ± 0.34 |
| ISRADVWVWFLLSMSRREYF | 0.268 ± 0.55 |
| ITKNRPARNRLLRTGMYFLL | 0.004 ± 0.29 |
